Data published in PMC11222466.

Tests used:
[1] = target: PHB-CC_(ΔEA4), PHB-CC variant with A286E287A288 deleted (Staphylococcus aureus); test: SEC; purified FloA variants at ~60 μM, Superdex 200 Increase 10/300 GL, 300 mM NaCl, 50 mM Tris-HCl pH 8.0, 10% glycerol, 0.02% DDM
[2] = target: Purified OBL domain of NfeD (Staphylococcus aureus); test: SEC; purified NfeD variants at ~60 μM, Superdex 75 Increase 10/300 GL, 300 mM NaCl, 50 mM Tris-HCl pH 8.0, 10% glycerol, 0.02% DDM
[3] = target: Purified PHB domain of FloA (Staphylococcus aureus); test: SEC; purified FloA variants at ~60 μM, Superdex 200 Increase 10/300 GL, 300 mM NaCl, 50 mM Tris-HCl pH 8.0, 10% glycerol, 0.02% DDM
[4] = target: Purified native NfeD (Staphylococcus aureus); test: SEC; purified NfeD variants at ~60 μM, Superdex 75 Increase 10/300 GL, 300 mM NaCl, 50 mM Tris-HCl pH 8.0, 10% glycerol, 0.02% DDM

PHB-CC_(ΔEA4), PHB-CC variant with A286E287A288 deleted (domain or fragment)
stoichiometry N [1]: 2

Purified OBL domain of NfeD (domain or fragment)
stoichiometry N [2]: 2

Purified PHB domain of FloA (domain or fragment)
stoichiometry N [3]: 2

Purified native NfeD (natural protein)
stoichiometry N [4]: 2
